We go through ten molecules from PMC3717379 (Biochemistry, 2013).

In experiment [1] the target is monocysteine SecA mutant SecA-402C (E. coli) (UniProt P10408). Kind of experiment: FRET or BRET. Background: BRET reads energy transfer from a luciferase to a nearby fluorophore.
The target of experiment [2] is SecA-340C (Escherichia coli, UniProt P10408, C885S/C887S/C896S/C98S/T340C). Format: binding.
Experiment [3] deals with SecA-458C (Escherichia coli, UniProt P10408, C885S/C887S/C896S/C98S/S458C). Format: binding.
Experiment [4] addresses SecA-506C (Escherichia coli, UniProt P10408, C885S/C887S/C896S/C98S/M506C). It is filed as binding.
Experiment [5] has as its target SP22, 22 residue long E. coli alkaline phosphatase signal peptide with cysteine at position 22 (E. coli). Kind of experiment: fluorescence polarisation.
The target in experiment [6] is monocysteine SecA mutant SecA-340C (E. coli) (UniProt P10408). Kind of experiment: FRET or BRET.
Experiment [7] concerns the target monocysteine SecA mutant SecA-506C (E. coli) (UniProt P10408). In words: FRET or BRET.
Experiment [8] deals with monocysteine SecA mutant SecA-59C (E. coli) (UniProt P10408). In words: FRET or BRET.
Experiment [9] addresses wildtype SecA (Escherichia coli, UniProt P10408). In words: Fluorescence anisotropy binding of IAN-labeled signal peptide to wildtype SecA. Background: In fluorescence polarisation assays a small probe gives low polarisation when free and higher when bound to something large.
Experiment [10] concerns the target SecA (Escherichia coli) (UniProt P10408). The note with it: cited from earlier work.
The target is the same in experiment [11]. The note with it: cited from earlier work. This is another data set of the same source.
The target in experiment [12] is monocysteine SecA mutant SecA-458C (E. coli) (UniProt P10408). Kind of experiment: FRET or BRET.
Experiment [13] concerns the target monocysteine SecA mutant SecA-696C (E. coli) (UniProt P10408). Kind of experiment: FRET or BRET.
In experiment [14] the target is wildtype SecA (Escherichia coli) (E. coli, UniProt P10408 1-901). In words: fluorescence polarisation.

Where two headings read alike, the source gives them in different places. No end group written: not given here. IANBD = IANBD fluorescent probe (code IAN) attached to the cysteine

As to “monocysteine SecA mutant SecA-402C (from UniProt P10408 1-901) (natural protein)”, in experiment [1], the E FRET (AF488-AF568 dye pair) was found to be 0.31 and the E FRET (IAE-IAN dye pair) came to 0.19.

A word on the Kd: it is the equilibrium constant for the complex coming apart. Consider MKQSTIALALLPLLFTPVTKAC-NH2 [SP22], for which the results for the dissociation constant Kd in experiment [2], in experiment [3] and in [4] were 1100 ± 400 nM, 3000 ± 1700 nM and 1500 ± 700 nM, respectively.

Molecule “monocysteine SecA mutant SecA-340C (from UniProt P10408 1-901) (natural protein)” registered a Kd in experiment [5] of 1100 nM. Moreover, in experiment [6], the E FRET (AF488-AF568 dye pair) was determined as 0.78, the E FRET (IAE-IAN dye pair) is 0.12, the E FRET with SP22 (AF488-AF568 dye pair) amounted to 0.64 and the E FRET with SP41 (AF488-AF568 dye pair) is 0.23.

Consider “monocysteine SecA mutant SecA-506C (from UniProt P10408 1-901) (natural protein)”, for which, in experiment [5], the Kd stood at 1500 nM. In [7], this molecule had an E FRET with SP22 (AF568-AF647 dye pair) of 0.67 and an E FRET with SP41 (AF568-AF647 dye pair) of 0.69.

Regarding “monocysteine SecA mutant SecA-59C (from UniProt P10408 1-901) (natural protein)”, the E FRET (IAE-IAN dye pair) in experiment [1] amounted to 0.4. Besides, in experiment [8], the E FRET (AF568-AF647 dye pair) came to 1 and the E FRET (IAE-IAN dye pair) was determined as 0.38.

On to “MCKQSTIALALLPLLYTPVTKARTPEMPVLENRAAQGDITA-NH2 [SP41]”, for which the Kd in [9] is 6200 ± 800 nM; in experiment [2], 6200 ± 4300 nM; in experiment [3] it was 4800 ± 600 nM; in experiment [4] it was 6300 ± 1000 nM.

As for SecA (from UniProt P10408), the Kd in [10] is 2200 nM; in experiment [11], 1 nM.

The molecule “monocysteine SecA mutant SecA-458C (from UniProt P10408 1-901) (natural protein)” had a Kd in experiment [5] of 3000 nM. For the same molecule, in experiment [12], the E FRET with SP22 (AF488-AF568 dye pair) stood at 0.45 and the E FRET with SP41 (AF488-AF568 dye pair) is 0.45.

In [5], “monocysteine SecA mutant SecA-696C (from UniProt P10408 1-901) (natural protein)” gave a Kd of 2500 nM. Also, in [13], the E FRET (AF488-AF568 dye pair) is 0.23, the E FRET with SP22 (AF568-AF647 dye pair) stood at 0.42 and the E FRET with SP41 (AF568-AF647 dye pair) turned out to be 0.41.

MKQSTIALALLPLLFTPVTKAC(IANBD)-NH2 [SP22, 22 residue long E. coli alkaline phosphatase signal peptide with cysteine at position 22] returned a dissociation constant (Kd) in experiment [14] of 1400 ± 200 nM.
